Measured values published in the DeepSol protein solubility set.

Experiment: soluble on expression in E. coli; label from the status in PepcDB or PDB records
For “MLHIVKHLEKLPLLSAYLLDGDVVLLTENAVYAAAVHSPYQASINDQNLWLVLYEDLHARGWLEKCDPRISVVTMSDFVDLTVTHDKSITW”, the “soluble on expression in E. coli” value was “not soluble”.
For “MEKFIDENVAFGRMPYEDEIDELVEKFDAFVVLVEDFELVYDIEELKKKVDVLHSPIPDFTAPSLSQLYKIVKWIEEKVKEGKKVYIHCYGGSGRSGTVAVAWLMYSQGLSLREGLRRVRLLKPSAVETEDQLEVLREFERFLDTR”, the “soluble on expression in E. coli” value was “soluble”.
In the case of “MGSDKIHHHHHHMKKQPSATVNQEKESELIEGLMSNDDLAYETLVRQYSAKMYAVARRFFCTNDDAQECLQKAFIQVFKNITSFKQNSNLSTWLHRITVNEALMMLRQRKRQNTTSLEEFAQHYNEYGERTVFADNLGNNLNNNLGTILGGNVETLFEKTETKLSLNDIIFQLPEKYCNVLLLRDIQEISTKETAEILAISESLVKTQLHRARLLLKAILEQDDKDNLESNWKVNSHVND”, the “soluble on expression in E. coli” value is reported as “not soluble”.
For “MGSDKIHHHHHHVTGSDTQLYPPMSTYLENHNIRYFNSFSAENLKSATPDLVVVGNAISRGNPDLEYALDQHMELISMPQLVRRELIGRHTSIVVAGTHGKTTTTSLVAWLLEAGGLLPGFLIGGIPENFGDGCRPSGLSEPGFFVTEGDEYDSAFFDKRSKFLHYRPDIAIINNVEFDHADIFDSLDDIKKSFRLLVNLVPSNGLLIVNADDPNSMEVSAKAFCRVETFGLNGNAEWTAADIATDTDGTSFTVVRDSEAIGRVKVPLFGNYNVMNALAATAAAIRAGVSFESVTRGLCSFKRPKRRMELVGEYAGGITLIEDFAHHPTAIRLTLGAIAEHYPGRRIIACFEPRSNTTSRNIFQHELSECFGDAAIVVLGKVNRPERYAPEERLDAALLCRELKANGKRVFAAGSENYPEDIVRFIEAEQQPGDVVVLLSNGSFSGLKEMLAESFQKNS”, the “soluble on expression in E. coli” value was “not soluble”.
With “AIAEPGSPAGAGAEAPAFYSERKLSRKQLKKLAKAEREYEEERRKELEAAQAVDTAQKRELARIESILRTHALRMEYVEPDGHCLFRALVRQLRPLIQSGLFDTYFPAADTETRSALLTWSTIPDEMEAVWLLRKTLASFIRRRGTEFFPFIVGELDPQGTLLDASDDPAERVAQYCARLEDGTLWGGQPELQAVALALRCRVFVFADPEILPNGMLVMGADDASTDTGAESVTALRVSFHKQFFSLGEHYHAVVPADDSRGDARDPRISAS” the “soluble on expression in E. coli” value was “soluble”.
With “MARPLKQGIDYFPLSVDFLRDIKVRKIKRACGPYTVEILLCLLGNIYRETGYYIGWDEDTMFLVADEVGAKEGLVEETVNKAVQVGFFNQEKFNEYRILTSNGIQKRYLEATKKRKEVVISDIYLVNDTIKDEETLVNGVDNEQSKVNKSKVDKSKVNKNNKEKPAVQLSSEKDFLENPLGDKKTAELIAYYSKNVSLATPVNMTNLAYDLKDFNGDLDLLKEAINICSSNVKTYAYFAGILKQWRANGINTHADFLKKVNKKSKQKNKRDSEPPLNDYSGLF” the “soluble on expression in E. coli” value was “not soluble”.
For “MIFENRLALSAMAGVNNAEFCRKQKASLVILGGFNADRRALEAAEKAVKRGRKEFLFGIDGIEGEIKKLGRRKFAVNVRSSSLEGYLNVAELVAEFEGIIEINAHCRQPEFVEIGCGEWLLFNHERLVEIVSKTSRIAPTFVKIRGGHKLDYEKIARKLFDAGCLAIHVDAMIPGGGCDFSLIERISRIGNVIGNNSFVDIESGERIIMAGAKMASAARAVLRDENFFEKMLRSPLLSQPVELSCGRFR”, the “soluble on expression in E. coli” value was “not soluble”.
For “MLVRLGYVAMSVHLKNASPSQTMTYAQFQKLDDRDAAIRKLERIANSNLENCLRLLKHNKGHDISFFRLSSKLIPLANHEELLEWNYIRPLKENLKKLGEYAVHMNMRIDFHPDHFVVLNSPEESVFKQSVKTLQMHKKLLKGMGIEHKQRCVLHVGGGYKDKELALERFIENWSNVPRGIQEMIILENDDTTFTLEETLYLGEKLDIPVVFDLHHHMMNNEQEDWYEDWARVVHTWETSLLPIKMHISSPREGKDPRAHADYINVDAFLSFLRRIKGSVPQIDCMIEAKMKDESLFQLMRDLSEQVDVEIIDGASFYIK”, the “soluble on expression in E. coli” value was “not soluble”.
In the case of “MGSDKIHHHHHHMKITTKQVGARMREARKKKKYTLRYLANKIGLSSGSTISNWELGLNLPNKRYLKKIAKACDTTVDWLLYGDFDRFVRQLLKENFQNKQLLKPPFFTQLMGRLSEEQLSYHDSLKIMIQAQKLQQSFYAFPLTVEAPSHSQESISIYEPTTAEEQSDQSYYHPFILSELHELFTHSQNPELDYSLIIAFLPLLKVDQLTEPQKEVLLAIFKRMNSFKDQTLLNEFFVELQYLL”, the “soluble on expression in E. coli” value is reported as “not soluble”.
In the case of “MGSDKIHHHHHHMKWYADYLSIYDKPFTQAPQAVINQVKDKVRQLATHAPLVSVVAIAHNEEKRILSCLWSLCENQHNYPVEILVINNHSTDHTEEVLKELGVTYFNEYRKGPGFARQCGLNHARGKYHLCIDADTLYPPQYISTMIKVLQDKEVAGAYALWSFLPNEHHLGLFFYETLRDLYLKIQNLNRPELNVRGMAFAFHTETARKEGFRTDILRGEDGSLALALKKYGKLRFVTARKARVLTGYGTISADGSLFSSFKKRAIKGLRSFTALFYSKNNYEDEDSNLIK”, the “soluble on expression in E. coli” value is reported as “not soluble”.
In the case of “MKKTTLAMSALALSLGLALSPLSATAAETSSSAMTAQQMPSLAPMLEKVMPSVVSINVEGSTTVNTPRMPRNFQQFFGDDSPFCQDGSPFQNSPFCQGGGNGGNGGQQQKFMALGSGVIIDAAKGYVVTNNHVVDNASVIKVQLSDGRKFDAKVVGKDPRSDIALIQIQNPKNLTAIKLADSDALRVGDYTVAIGNPFGLGETVTSGIVSALGRSGLNVENYENFIQTDAAINRGNSGGALVNLNGELIGINTAILAPDGGNIGIGFAIPSNMVKNLTSQMVEYGQVKRGELGIMGTELNSELAKAMKVDAQRGAFVSQVMPNSSAAKAGIKAGDVITSLNGKPISSFAALRAQVGTMPVGSKISLGLLREGKAITVNLELQQSSQSQVDSSTIFSGIEGAEMSNKGQDKGVVVSSVKANSPAAQIGLKKGDVIIGANQQPVKNIAELRKILDSKPSVLALNIQRGDSSIYLLMQ”, the “soluble on expression in E. coli” value is reported as “not soluble”.
For “MKDVAKLLKILPPTFNETVLLPVQTQLKEHYPRTVSLVKNLVSPLPEEYRFLTEVLLSVLLSGEISETIPYQALLVAHGESTATSIQAVANKLCGTYIFDAINMPLTSSVRDIVAEVKEWLSQRDTSQGVIMLVDMGSLTQLYKSLKPQILGELLVINNLTTAYALEIGHQLMNEQLFYGIAKTAEKKFKTDVQYFEGFSVEKNIIVSSISGLDIAKQIKQICQKYLYTDIKVITLKYKDLVNTLDIANAEENYLKETSLILTTSYLDNHTNVASVNLLDMLDEDAGTQLMEPFQNLMHPNNIDSMINEFVHFFSKEGLSEKLEFLNPDVIIKQVENVTKNIEKRFDLTLSGKMKFNLMMHNALMVERTMLGVEDYEIPANLEELTINQKPFFQNAKNIFYTLEQFYRIEISNWELYVIYEILSSR”, the “soluble on expression in E. coli” value was “not soluble”.
For “MSFMDKVKDTANSAYESVENTAVGAKDGVVGAFNTVGEKIGGAYDSTKQYASDKVSAAGDYASEAGKKVGDAEDSMIQGAYDAKDSAKESASNAGNKISNAFTSLKDSITGDNAHKTGEALNDNYESVKESASEAADRLKEPAQNTADNAKDLANQTGEEMSDAFESVKQLTSDTAENAKENAHDAADTAKSYKDKAGEKASGILDSFKAHASDAKDSVENKASDAYNSAKDKAGDAWDSTKDAAGDAKDKTKSFTEKVGDKISGAYDSVKEKASDVADSFKAHSTDSKDNVENKAADAYNTAKDKASDAWDKTKDKAGEAKDKMGDAWDTTKDKAGDAWDTTKDKAGDGKGKAGDAWDTTKDKASDAWDTTKDKAGEAKDKMGEAWDHTKDKAGEAKDKASDAADDAQGKSKSMTEKIGDSISGAWESTKDTAVSAKDKTAEAAGKVGDSISGAYDTVKEKASDIADSFKAHSTDSKDNVENKAADAYNSAKDKASDAWDKTKDKAGDAKDKAADAWDTTKDKAGDAWDSTKDHAADAKDKASDAAGDAKDKSKSLTEKAGDAISGAYDSVKEKASDIADSFKAHSTNSKDNVENKASDAYNSAKDKASDAWDKTKDKAGEAKDKAGDAWDNTKDKAGNAWDSTKDKASDAWDTTKDKASDAKESAGDAADSAKDKSKSITETIGDKISGAYDSVKEKASDVADSFKAHSSDAQDTVEVSHHKYFNVFSSFE”, the “soluble on expression in E. coli” value was “soluble”.
For “MTVPPTATHQPWPGVIAAYRDRLPVGDDWTPVTLLEGGTPLIAATNLSKQTGCTIHLKVEGLNPTGSFKDRGMTMAVTDALAHGQRAVLCASTGNTSASAAAYAARAGITCAVLIPQGKIAMGKLAQAVMHGAKIIQIDGNFDDCLELARKMAADFPTISLVNSVNPVRIEGQKTAAFEIVDVLGTAPDVHALPVGNAGNITAYWKGYTEYHQLGLIDKLPRMLGTQAAGAAPLVLGEPVSHPETIATAIRIGSPASWTSAVEAQQQSKGRFLAASDEEILAAYHLVARVEGVFVEPASAASIAGLLKAIDDGWVARGSTVVCTVTGNGLKDPDTALKDMPSVSPVPVDPVAVVEKLGLA”, the “soluble on expression in E. coli” value was “soluble”.
With “MSNKLDGINKMITAKHKQMDDLYDEKREVKALIDESDELNHSIEQLYQHLGDRYHSSNMASRMEQFRDEFHFAKRRSTEALYEQQQQIQHGIRKAEEEMIDLEMRRNVEIETVTKEENKWKQLEHHHHHH” the “soluble on expression in E. coli” value was “soluble”.
In the case of “MKILGISGSPRKEGTHFAVNYALDYLKEKGFETKYISVFQKKIEFCIHCDYCLRTKEGCVHKDSMQEIYNGLKWADAVILGSPCYNGTVSGQLKTIMDRCRAIFAEDIDVLRNKYGMALSVGGDRNGGQEVVLKTIHDFYILNGVIPVSGGSFGSNLGATFWSQDNGKKGVEEDTEGIRTLKRTLKKFYNCLNEEGELEHHHHHH”, the “soluble on expression in E. coli” value is reported as “not soluble”.
With “MGSDKIHHHHHHLNTLKTNAMEIFKQAVSTLNNPEVQGWKQQGGKVVGYFYSYIPEELITAAGLLPYKIRGIGSPGAAMADKYFTHNVCSLVRDTFELVLKGECDFLDGVINFNGCDHIRRISDNWQSLENNPCFHFLVLPKKVGKEQTERYREELVSLKASIEKRFNLVISEDKLKEAIRLHNKKRQLQRRLYELKKRENPPLSGAETLTVMIAGTVMPVARYNRLLAELIDELSISEGKKPNARLMLIGGELDNPELLKILESQGGMVVSDTMALGAREIACDVSETEDGLTALARYHMEDKPPCPRLYGTFQERFDFIRKTAREYQVDGVISLRFLLCDIWGFEQNDIAEILRTEKLPYLKLETEYALTNAGQLKTRVQAFVETLGEV” the “soluble on expression in E. coli” value was “not soluble”.
For “MGSDKIHHHHHHMPCKNFFTTRPIMEEDCLWDKRRKIVDDLFRTVLRGNIAILLGPRRVGKTSVVNVISQKFAKRRNHHYIYFNFSRFIGARAISIADIEPKRTSLKLITTSKSYVISLKGISVEVRKTSIEEFTSDFSTLVRILSQNSERGLLIFDEAQVLARLKNLDFRGLIQEITDSYPNISMIFTGSMPGLLIEYLNPGPDKPNFMRASETFTLSRWNVEEGLEFLKKGFESYGISVRNELELERAVKELGGIPGFISYYGITVINLVRSGVPVEKALPRALEESKRYALEEWKKDLEAFLNVYNSPIYVEVMKVLASSYPTALKGAEVYRRMNRAPKRIQHIYKYLDVLEKVGFIRSEGGKYWIEDPILRELLT”, the “soluble on expression in E. coli” value was “not soluble”.
For “MTNSSSSKKQAQDQPETSEPTLKSLKTKMTKSDEKQKKLKDIEISVPIVYGNVAFWLGKKASEYQSHKWAVYVRGATNEDISVVVKKVVFQLHSSFNSPTRVIEEPPFEVSESGWGEFEIAMTLHFHSDVCDKPLSLYHHLKLYPEDESGPLTMKKPVVVESYDEIVFPDPSESFLARVQNHPALTFPRLPSGYNLPAPMQVEDTGKKKRGDTKDHSLGQWFMSFSEADELLQLAAARQQVQAHIAKLRRQISLLEGQNQTVKTGSDL”, the “soluble on expression in E. coli” value was “not soluble”.
In the case of “MTLYRLHEADLEIPDAWQDQSINIFKLPASGPAREASFVISRDASQGDAPFADYVARQLENAEKQLPGFKLHKRWDINIHGHAAVLLDYQWQREGRDLMLRQVFIERRPAVLITTLTTTPADLPHHEPAWKQAMQTLVPRPTPS”, the “soluble on expression in E. coli” value is reported as “soluble”.
